Reference: patent publication US7423017B2, “Method for treating cartilage disorders” (Genentech, Inc., priority 1997, dated 2008)
“Also recorded” adds a separate entry of the source. Marks after values point to notes of the source that are not given here.

Columns and labels:
[1] = blood clearance, pharmacokinetics and tissue distribution of radiolabeled IGF-1 variants, IV in rats; type: in vivo, rat
[2] = test system: human articular cartilage explants; assay: human articular cartilage explants from diseased joints: matrix synthesis (35S-sulfate uptake); type: cell-based; conditions: 40 ng/ml
Description: The metacarpophalangeal joint of a six-month old pig was cultured as described above for bovine articular cartilage in Example 8. This explant was cultured in media alone or in media with D12K, D12R, or wild-type IGF-1 (at 10 nM) alone or in the presence of IL-1α at 1 ng/ml, as described above. Human explants were from patients undergoing joint replacement surgery. Articular cartilage was harvested, aliquoted (40-45 mg/tube) and cultured as above. […] Fresh media was added on days 0, 1, 2, and 3. Matrix breakdown was determined by measuring the amount of proteoglycans in the media using the DMMB assay as set forth above. Matrix (proteoglycan) synthesis was determined by measuring ^35S-sulfate uptake as set forth above.
Human articular cartilage explants were cultured in media or treated with IGF-1 by itself or in combination with either BP3-40 or BP3-15 at 0.1 mg/ml as set forth above. Matrix breakdown was determined by measuring the release of proteoglycans into media as described above. Matrix synthesis was determined by counting the amount of ^35S-sulfate incorporated into the cartilage tissue as described above.
The same Material and Methods (for human tissue) were used as described above, using articular cartilage explants from human joints removed from patients undergoing joint replacement. These explants were cultured with IGF-1 alone at 40 ng/ml, or IGF-1 with BP1-17, BP3-15, or BP1-16 (0.1 mg/ml), or IGF-1 with buffer (HEPES).

[3] = molecular target: T1, IGFBP-3 (Homo sapiens, UniProt P17936); assay: BIACORE kinetics: IGFBP-3 binding to immobilized IGF-1 variants; conditions: for IGFBP-3 ka / IGFBP-3 kd: Table XV; for Binding to IGFBP-3 ka: 25 C; for Binding to IGFBP-3 KD: kd/ka
T1 construct: made in house
T1 sequence (P17936 28-291): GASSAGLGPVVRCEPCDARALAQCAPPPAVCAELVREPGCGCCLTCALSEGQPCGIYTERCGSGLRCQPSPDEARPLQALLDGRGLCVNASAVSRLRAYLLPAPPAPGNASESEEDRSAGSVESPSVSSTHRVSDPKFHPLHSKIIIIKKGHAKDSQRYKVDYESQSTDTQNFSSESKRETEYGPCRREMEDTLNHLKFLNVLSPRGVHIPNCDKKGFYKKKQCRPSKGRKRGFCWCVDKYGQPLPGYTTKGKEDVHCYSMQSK
Description: (§1) The binding affinities of the IGF variants for IGFBP-1 and IGFBP-3 were determined using a BIACORE™-2000 real time kinetic interaction analysis system (Biacore, Inc., Piscataway, N.J.) to measure association (ka) and dissociation (kd) rates. Carboxymethylated dextran biosensor chips (CM5, BIAcore Inc.) were activated with EDC (N-ethyl-N′-(3-dimethylaminopropyl)-carbodiimide hydrochloride) and NHS(N-hydroxysuccinimide) according to the supplier's instructions. For immobilization, IGF mutants in 20 mM sodium acetate, pH 4.8, were injected onto the biosensor chip at a concentration of 50 μg/ml to yield approximately 450-600 RU's (resonance-responce units) of covalently-coupled protein. Unreacted groups were blocked with an injection of 1 M ethanolamine. Kinetic measurements were carried out by injecting two-fold serial dilutions (starting at 1 μM) of either IGFBP-1 or IGFBP-3 in running buffer (PBS, 0.05% TWEEN 20™, 0.1% ovalbumin, 0.1% sodium azide) at 25 °C using a flow rate of 20 μl/min. Association rates (ka) and dissociation rates (kd) were calculated separately using a 1:1 Langmuir™ association model in the BIACORE™ evaluation software v. 3.0. The equilibrium dissociation constant (KD) was calculated as kd/ka.

[4] = molecular target: T2, IGFBP-1 (Homo sapiens, UniProt P08833); assay: BIACORE kinetics: IGFBP-1 binding to immobilized IGF-1 variants; set-up: made in house; host or cells: CHO cells; conditions: for Binding to IGFBP-1 ka: 25 C; for Binding to IGFBP-1 KD: kd/ka
T2 sequence (P08833 26-259): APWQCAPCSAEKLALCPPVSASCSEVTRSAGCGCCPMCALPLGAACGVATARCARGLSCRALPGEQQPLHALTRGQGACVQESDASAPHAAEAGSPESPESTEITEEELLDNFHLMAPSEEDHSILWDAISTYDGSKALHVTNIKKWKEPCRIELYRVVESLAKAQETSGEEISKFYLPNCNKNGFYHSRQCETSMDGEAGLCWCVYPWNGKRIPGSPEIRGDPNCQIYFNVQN
Description: as §1
(§2) For measurements of IGFBP-1 binding to IGF-1, kinetics experiments were conducted using a single-cysteine IGF-1 variant, Y31C, that was immobilized onto the sensor chip surface via a disulfide linkage (BIACORE™ System Manual Supplement, 5a-1, Pharmacia (1991)).

[5] = test system: IGFBP-1; assay: competitive phage ELISA of IGF-1 mutants, IGFBP-1; type: binding, human; conditions: relative IC50 IGFBP-1/relative IC50 IGFBP-3
Description: (§3) An alanine-scanning mutagenesis approach (Cunningham and Wells, Science, 244: 1081-1085 (1989); U.S. Pat. No. 5,834,250) was used to remove that portion of each side chain of IGF-1 beyond the beta carbon. The contribution of these atoms to the free energy of binding of the IGF-1 analog to IGFBP-1 or to IGFBP-3 was then assessed by competitive phage ELISA. In this assay, IGFBP-1 or IGFBP-3 is used to inhibit IGF-phage mutants from binding to an IGFBP-1- or IGFBP-3-coated immunosorbant plate.
(§4) Immunosorbent plates (Nunc, MAXISORP™, 96 wells) were coated with 100 μl/well of 1 μg/ml IGFBP-1 or IGFBP-3 in PBS buffer pH 7.2 at 4° C. overnight. The plates were then blocked with 0.5% TWEEN 20™/PBS (also used as binding buffer) for 2 hours at room temperature (proteinaceous blocking agents like bovine serum albumin were avoided to prevent potential IGF or IGFBP contamination). E. coli cells (XL1-Blue, Stratagene) freshly transformed with phagemid vector were grown overnight in 5 mL 2YT medium (Sambrook et al., supra) in the presence of M13-VCS helper phage (Stratagene). Phage particles were harvested and resuspended in PBS buffer as described in Lowman, H. B., “Phage Display of Peptide Libraries on Protein Scaffolds,” in Cabilly, S. (ed.), Combinatorial Peptide Library Protocols (Humana Press Inc.: Totowa, N.J., 1998), pp. 249-264. Then phage concentrations were normalized to yield a maximal ELISA signal of 0.2-0.4 for each mutant (Lowman, in Cabilly, S. (ed.), supra). Threefold serial dilutions of soluble competitor were prepared on non-absorbent microtiter plates (Nunc, F, 96 wells) with binding buffer (0.5% TWEEN 20™/PBS) containing phage at the previously determined concentrations. The dilution range of competitor protein extended over six orders of magnitude, starting at 5 μM for IGFBP-1 and 500 nM for IGFBP-3. After blocking, the plates containing immobilized target were washed with 0.05% TWEEN™/PBS buffer and subsequently incubated with 80 μl/well of the premixed phage-competitor solutions for 1 hour at room temperature. After washing, bound phage was detected with 80 μl/well of a solution containing a primary rabbit anti-phage polyclonal antibody and a secondary goat anti-rabbit monoclonal antibody-horseradish peroxidase conjugate in 0.5% TWEEN 20™/PBS. o-Phenylenediamine (Sigma) and tetramethylbenzidine (Kirkegaard and Perry) were used as chromogenic substrates, resulting in product detection at 492 and 450 nm, respectively. IC50 values were determined by fitting the binding data to a generic saturation curve (Lowman, in Cabilly, S. (ed.), supra). At least two individual clones of each IGF-1 mutant were assayed. Numbers in Table XIII represent mean±standard deviation of individually assessed IC50 values.

[6] = test system: IGFBP-1; assay: BIACORE kinetics: IGFBP-1 binding to immobilized IGF-1 variants; set-up: species or system human; conditions: from relative KD values
Description: as §1, §2

[7] = molecular target: T2, IGFBP-1; assay: competitive phage ELISA of IGF-1 mutants, IGFBP-1; type: binding; set-up: made in house; host or cells: CHO cells; conditions: phage display, soluble IGFBP-1 competitor
Description: as §3, §4

[8] = molecular target: T1, IGFBP-3; assay: competitive phage ELISA of IGF-1 mutants, IGFBP-3; type: binding; conditions: phage display, soluble IGFBP-3 competitor
Description: as §3, §4

^125I-F49A: radiolabeled F49A IGF-1
Half-life t1/2^α ([1]; single IV dose in rats): 3.84 ± 3.12 min
Half-life t1/2^β ([1]; single IV dose in rats): 0.971 ± 0.336^+ hr
Half-life t1/2^γ ([1]; single IV dose in rats): 8.97 ± 4.50 h
clearance ([1]; single IV dose in rats): 427 ± 125*^+ ml/hr/kg
steady-state distribution volume ([1]; single IV dose in rats): 3201 ± 488*^+ ml/kg

F16A/F49A: double mutant of IGF-1, F16A and F49A
matrix synthesis in diseased human articular cartilage [2]: stimulated matrix synthesis in diseased human articular cartilage
IGFBP-3 ka [3]: 0.4 ± 0.1 ×10^5 M^−1
IGFBP-3 kd [3]: 38.6 ± 2.7 ×10^−4 s^−1

G1S-A70V: IGF-1 double mutant, first and last amino acids changed; template for alanine scan
Binding to IGFBP-1 ka [4]: 3.2 ± 0.2 ×10^4 M^−1s^−1
Binding to IGFBP-3 ka [3]: 2.9 ± 0.8 ×10^5 M^−1s^−1
relative specificity [5]: 1.0
Specificity Relative BP-1 / Relative BP-3 [6]: 0.7

F49A: IGF-1 variant wherein phenylalanine at position 49 is changed to alanine
IC50 [7]: > 1000 nM
matrix synthesis in diseased human articular cartilage [2]: stimulated matrix synthesis in diseased human articular cartilage
Binding to IGFBP-1 ka [4]: 1.26 ± 0.8 ×10^4 M^−1s^−1
Binding to IGFBP-3 ka [3]: 2.7 ± 0.7 ×10^5 M^−1s^−1
IGFBP-3 ka [3]: 2.7 ± 0.7 ×10^5 M^−1
IGFBP-3 kd [3]: 17.1 ± 0.9 ×10^−4 s^−1
Specificity Relative BP-1 / Relative BP-3 [6]: 16.7
rate of clearance from blood ([1]; radiolabeled, IV, rats): cleared at a faster rate compared to wild-type human IGF-1
kidney tissue-to-blood ratio ([1]; radiolabeled, IV, rats, 5, 15, 30 minutes): accumulate at statistically significant higher levels in the kidney compared to wild-type IGF-1; also recorded: accumulate at statistically significant higher ratios in the kidney compared to wild-type IGF-1
clearance ([1]; single IV dose in rats): 427 ± 125 mL/h/kg
IC50 [8]: 2.72 ± 1.11 nM

P39A: IGF-1 single alanine mutant
Binding to IGFBP-1 ka [4]: 3.1 ± 0.2 ×10^4 M^−1s^−1
Binding to IGFBP-1 KD [4]: wild-type kinetics
Binding to IGFBP-3 ka [3]: 2.7 ± 0.2 ×10^5 M^−1s^−1
Binding to IGFBP-3 KD [3]: wild-type kinetics
Specificity Relative BP-1 / Relative BP-3 [6]: 0.7

T4A: IGF-1 single alanine mutant
IC50 [7]: 19.4 ± 6.4 nM
Binding to IGFBP-1 ka [4]: 1.9 ± 0.2 ×10^4 M^−1s^−1
Binding to IGFBP-3 ka [3]: 1.8 ± 0.6 ×10^5 M^−1s^−1
relative specificity [5]: 2.2
Specificity Relative BP-1 / Relative BP-3 [6]: 3.3
IC50 [8]: 0.8 ± 0.02 nM

V11A: IGF-1 single alanine mutant
Binding to IGFBP-1 ka [4]: 1.9 ± 0.1 ×10^4 M^−1s^−1
Binding to IGFBP-3 ka [3]: 3.1 ± 0.5 ×10^5 M^−1s^−1
Specificity Relative BP-1 / Relative BP-3 [6]: 1.1

R36A: IGF-1 single alanine mutant
Binding to IGFBP-1 ka [4]: 4.0 ± 0.2 ×10^4 M^−1s^−1
Binding to IGFBP-1 KD [4]: wild-type kinetics
Binding to IGFBP-3 ka [3]: 4.0 ± 0.1 ×10^5 M^−1s^−1
Binding to IGFBP-3 KD [3]: wild-type kinetics
Specificity Relative BP-1 / Relative BP-3 [6]: 1.4
